This note sets out measurements from publication PMC5053164.

This series can be described thus: expression yield of multisite mutants. Particulars: glycan lost; control: wild type.

B1: DORN1 extracellular domain (atDORN1-ECD; LecRK-I.9): N124N225D (protein)
parent chain: MARWLLQILIISSLHLSSVSSQQETSFVYESFLDRQNLYLDKSAIVLPSGLLQLTNASEHQMGHAFHKKPIEFSSSGPLSFSTHFVCALVPKPGFEGGHGIVFVLSPSMDFTHAESTRYLGIFNASTNGSSSYHVLAVELDTIWNPDFKDIDHNHVGIDVNSPISVAIASASYYSDMKGSNESINLLSGNPIQVWVDYEGTLLNVSVAPLEVQKPTRPLLSHPINLTELFPNRSSLFAGFSAATGTAISDQYILWWSFSIDRGSLQRLDISKLPEVPHPRAPHKKVSTLIILLPVCLAILVLAVLAGLYFRRRRKYSEVSETWEKEFDAHRFSYRSLFKATKGFSKDEFLGKGGFGEVYRGNLPQGREIAVKRVSHNGDEGVKQFVAEVVSMRCLKHRNLVPLFGYCRRKRELLLVSEYMPNGSLDEHLFDDQKPVLSWSQRLVVVKGIASALWYLHTGADQVVLHRDVKASNIMLDAEFHGRLGDFGMARFHEHGGNAATTAAVGTVGYMAPELITMGASTGTDVYAFGVFMLEVTCGRRPVEPQLQVEKRHMIKWVCECWKKDSLLDATDPRLGGKFVAEEVEMVMKLGLLCSNIVPESRPTMEQVVLYLNKNLPLPDFSPYTLGIGTFAPVLVDASSLVVSSASWSLSGPSMSSSSPNHSPYAWQSTDQPWGQTIDTKNSLHIVAEPEKPSPAVKMVTLPAEDPQSNHSSISSQRVQPVKREKRRLHQILVAFPWINKQYFKLGLPKHIVHVSLFFFLQLARL
Turning to B1, the “expression_or_secretion, percent_of_wt” value was “decreases”.

B2: DORN1 extracellular domain (atDORN1-ECD; LecRK-I.9): N124N128N225D (protein)
parent chain: MARWLLQILIISSLHLSSVSSQQETSFVYESFLDRQNLYLDKSAIVLPSGLLQLTNASEHQMGHAFHKKPIEFSSSGPLSFSTHFVCALVPKPGFEGGHGIVFVLSPSMDFTHAESTRYLGIFNASTNGSSSYHVLAVELDTIWNPDFKDIDHNHVGIDVNSPISVAIASASYYSDMKGSNESINLLSGNPIQVWVDYEGTLLNVSVAPLEVQKPTRPLLSHPINLTELFPNRSSLFAGFSAATGTAISDQYILWWSFSIDRGSLQRLDISKLPEVPHPRAPHKKVSTLIILLPVCLAILVLAVLAGLYFRRRRKYSEVSETWEKEFDAHRFSYRSLFKATKGFSKDEFLGKGGFGEVYRGNLPQGREIAVKRVSHNGDEGVKQFVAEVVSMRCLKHRNLVPLFGYCRRKRELLLVSEYMPNGSLDEHLFDDQKPVLSWSQRLVVVKGIASALWYLHTGADQVVLHRDVKASNIMLDAEFHGRLGDFGMARFHEHGGNAATTAAVGTVGYMAPELITMGASTGTDVYAFGVFMLEVTCGRRPVEPQLQVEKRHMIKWVCECWKKDSLLDATDPRLGGKFVAEEVEMVMKLGLLCSNIVPESRPTMEQVVLYLNKNLPLPDFSPYTLGIGTFAPVLVDASSLVVSSASWSLSGPSMSSSSPNHSPYAWQSTDQPWGQTIDTKNSLHIVAEPEKPSPAVKMVTLPAEDPQSNHSSISSQRVQPVKREKRRLHQILVAFPWINKQYFKLGLPKHIVHVSLFFFLQLARL
Regarding B2, the “expression_or_secretion, percent_of_wt” value is recorded as “decreases”.

B3: DORN1 extracellular domain (atDORN1-ECD; LecRK-I.9): N128N204N225D (protein)
parent chain: MARWLLQILIISSLHLSSVSSQQETSFVYESFLDRQNLYLDKSAIVLPSGLLQLTNASEHQMGHAFHKKPIEFSSSGPLSFSTHFVCALVPKPGFEGGHGIVFVLSPSMDFTHAESTRYLGIFNASTNGSSSYHVLAVELDTIWNPDFKDIDHNHVGIDVNSPISVAIASASYYSDMKGSNESINLLSGNPIQVWVDYEGTLLNVSVAPLEVQKPTRPLLSHPINLTELFPNRSSLFAGFSAATGTAISDQYILWWSFSIDRGSLQRLDISKLPEVPHPRAPHKKVSTLIILLPVCLAILVLAVLAGLYFRRRRKYSEVSETWEKEFDAHRFSYRSLFKATKGFSKDEFLGKGGFGEVYRGNLPQGREIAVKRVSHNGDEGVKQFVAEVVSMRCLKHRNLVPLFGYCRRKRELLLVSEYMPNGSLDEHLFDDQKPVLSWSQRLVVVKGIASALWYLHTGADQVVLHRDVKASNIMLDAEFHGRLGDFGMARFHEHGGNAATTAAVGTVGYMAPELITMGASTGTDVYAFGVFMLEVTCGRRPVEPQLQVEKRHMIKWVCECWKKDSLLDATDPRLGGKFVAEEVEMVMKLGLLCSNIVPESRPTMEQVVLYLNKNLPLPDFSPYTLGIGTFAPVLVDASSLVVSSASWSLSGPSMSSSSPNHSPYAWQSTDQPWGQTIDTKNSLHIVAEPEKPSPAVKMVTLPAEDPQSNHSSISSQRVQPVKREKRRLHQILVAFPWINKQYFKLGLPKHIVHVSLFFFLQLARL
In the case of B3, the “expression_or_secretion, percent_of_wt” value is recorded as “decreases”.

B4: DORN1 extracellular domain (atDORN1-ECD; LecRK-I.9): N204N225D (protein)
parent chain: MARWLLQILIISSLHLSSVSSQQETSFVYESFLDRQNLYLDKSAIVLPSGLLQLTNASEHQMGHAFHKKPIEFSSSGPLSFSTHFVCALVPKPGFEGGHGIVFVLSPSMDFTHAESTRYLGIFNASTNGSSSYHVLAVELDTIWNPDFKDIDHNHVGIDVNSPISVAIASASYYSDMKGSNESINLLSGNPIQVWVDYEGTLLNVSVAPLEVQKPTRPLLSHPINLTELFPNRSSLFAGFSAATGTAISDQYILWWSFSIDRGSLQRLDISKLPEVPHPRAPHKKVSTLIILLPVCLAILVLAVLAGLYFRRRRKYSEVSETWEKEFDAHRFSYRSLFKATKGFSKDEFLGKGGFGEVYRGNLPQGREIAVKRVSHNGDEGVKQFVAEVVSMRCLKHRNLVPLFGYCRRKRELLLVSEYMPNGSLDEHLFDDQKPVLSWSQRLVVVKGIASALWYLHTGADQVVLHRDVKASNIMLDAEFHGRLGDFGMARFHEHGGNAATTAAVGTVGYMAPELITMGASTGTDVYAFGVFMLEVTCGRRPVEPQLQVEKRHMIKWVCECWKKDSLLDATDPRLGGKFVAEEVEMVMKLGLLCSNIVPESRPTMEQVVLYLNKNLPLPDFSPYTLGIGTFAPVLVDASSLVVSSASWSLSGPSMSSSSPNHSPYAWQSTDQPWGQTIDTKNSLHIVAEPEKPSPAVKMVTLPAEDPQSNHSSISSQRVQPVKREKRRLHQILVAFPWINKQYFKLGLPKHIVHVSLFFFLQLARL
Regarding B4, the “expression_or_secretion, percent_of_wt” value is given as “decreases”.

B5: DORN1 extracellular domain (atDORN1-ECD; LecRK-I.9): N128N204D (protein)
parent chain: MARWLLQILIISSLHLSSVSSQQETSFVYESFLDRQNLYLDKSAIVLPSGLLQLTNASEHQMGHAFHKKPIEFSSSGPLSFSTHFVCALVPKPGFEGGHGIVFVLSPSMDFTHAESTRYLGIFNASTNGSSSYHVLAVELDTIWNPDFKDIDHNHVGIDVNSPISVAIASASYYSDMKGSNESINLLSGNPIQVWVDYEGTLLNVSVAPLEVQKPTRPLLSHPINLTELFPNRSSLFAGFSAATGTAISDQYILWWSFSIDRGSLQRLDISKLPEVPHPRAPHKKVSTLIILLPVCLAILVLAVLAGLYFRRRRKYSEVSETWEKEFDAHRFSYRSLFKATKGFSKDEFLGKGGFGEVYRGNLPQGREIAVKRVSHNGDEGVKQFVAEVVSMRCLKHRNLVPLFGYCRRKRELLLVSEYMPNGSLDEHLFDDQKPVLSWSQRLVVVKGIASALWYLHTGADQVVLHRDVKASNIMLDAEFHGRLGDFGMARFHEHGGNAATTAAVGTVGYMAPELITMGASTGTDVYAFGVFMLEVTCGRRPVEPQLQVEKRHMIKWVCECWKKDSLLDATDPRLGGKFVAEEVEMVMKLGLLCSNIVPESRPTMEQVVLYLNKNLPLPDFSPYTLGIGTFAPVLVDASSLVVSSASWSLSGPSMSSSSPNHSPYAWQSTDQPWGQTIDTKNSLHIVAEPEKPSPAVKMVTLPAEDPQSNHSSISSQRVQPVKREKRRLHQILVAFPWINKQYFKLGLPKHIVHVSLFFFLQLARL
Take B5: the “expression_or_secretion, percent_of_wt” value is on record as “decreases”.

B6: DORN1 extracellular domain (atDORN1-ECD; LecRK-I.9): N124N128N204D (protein)
parent chain: MARWLLQILIISSLHLSSVSSQQETSFVYESFLDRQNLYLDKSAIVLPSGLLQLTNASEHQMGHAFHKKPIEFSSSGPLSFSTHFVCALVPKPGFEGGHGIVFVLSPSMDFTHAESTRYLGIFNASTNGSSSYHVLAVELDTIWNPDFKDIDHNHVGIDVNSPISVAIASASYYSDMKGSNESINLLSGNPIQVWVDYEGTLLNVSVAPLEVQKPTRPLLSHPINLTELFPNRSSLFAGFSAATGTAISDQYILWWSFSIDRGSLQRLDISKLPEVPHPRAPHKKVSTLIILLPVCLAILVLAVLAGLYFRRRRKYSEVSETWEKEFDAHRFSYRSLFKATKGFSKDEFLGKGGFGEVYRGNLPQGREIAVKRVSHNGDEGVKQFVAEVVSMRCLKHRNLVPLFGYCRRKRELLLVSEYMPNGSLDEHLFDDQKPVLSWSQRLVVVKGIASALWYLHTGADQVVLHRDVKASNIMLDAEFHGRLGDFGMARFHEHGGNAATTAAVGTVGYMAPELITMGASTGTDVYAFGVFMLEVTCGRRPVEPQLQVEKRHMIKWVCECWKKDSLLDATDPRLGGKFVAEEVEMVMKLGLLCSNIVPESRPTMEQVVLYLNKNLPLPDFSPYTLGIGTFAPVLVDASSLVVSSASWSLSGPSMSSSSPNHSPYAWQSTDQPWGQTIDTKNSLHIVAEPEKPSPAVKMVTLPAEDPQSNHSSISSQRVQPVKREKRRLHQILVAFPWINKQYFKLGLPKHIVHVSLFFFLQLARL
B6: the “expression_or_secretion, percent_of_wt” value is listed as “decreases”.

B7: DORN1 extracellular domain (atDORN1-ECD; LecRK-I.9): N124N204N225D (protein)
parent chain: MARWLLQILIISSLHLSSVSSQQETSFVYESFLDRQNLYLDKSAIVLPSGLLQLTNASEHQMGHAFHKKPIEFSSSGPLSFSTHFVCALVPKPGFEGGHGIVFVLSPSMDFTHAESTRYLGIFNASTNGSSSYHVLAVELDTIWNPDFKDIDHNHVGIDVNSPISVAIASASYYSDMKGSNESINLLSGNPIQVWVDYEGTLLNVSVAPLEVQKPTRPLLSHPINLTELFPNRSSLFAGFSAATGTAISDQYILWWSFSIDRGSLQRLDISKLPEVPHPRAPHKKVSTLIILLPVCLAILVLAVLAGLYFRRRRKYSEVSETWEKEFDAHRFSYRSLFKATKGFSKDEFLGKGGFGEVYRGNLPQGREIAVKRVSHNGDEGVKQFVAEVVSMRCLKHRNLVPLFGYCRRKRELLLVSEYMPNGSLDEHLFDDQKPVLSWSQRLVVVKGIASALWYLHTGADQVVLHRDVKASNIMLDAEFHGRLGDFGMARFHEHGGNAATTAAVGTVGYMAPELITMGASTGTDVYAFGVFMLEVTCGRRPVEPQLQVEKRHMIKWVCECWKKDSLLDATDPRLGGKFVAEEVEMVMKLGLLCSNIVPESRPTMEQVVLYLNKNLPLPDFSPYTLGIGTFAPVLVDASSLVVSSASWSLSGPSMSSSSPNHSPYAWQSTDQPWGQTIDTKNSLHIVAEPEKPSPAVKMVTLPAEDPQSNHSSISSQRVQPVKREKRRLHQILVAFPWINKQYFKLGLPKHIVHVSLFFFLQLARL
On to B7, for which the “expression_or_secretion, percent_of_wt” value is on record as “decreases”.
